# Experimental data reported in patent publication US20210355238A1.
# Tests used:
# [1] = molecular target: Antigen B (monomeric lower molecular weight protein); test: Biacore SPR at 25°C; mAb captured on anti-human Fc (236.1±0.8 RU), Antigen B injected at 90 nM
# [2] = molecular target: Antigen A (multivalent high molecular weight protein); test: Biacore SPR at 25°C; mAb captured on anti-human Fc (236.5±1.0 RU), Antigen A injected at 100 nM
substance,measurement,setting,value
isotype control antibody (CI),Antigen B bound - 90 nM (RU),[1],7 RU
same,Antigen A bound - 100 nM (RU),[2],18 RU
